Patent US11248023B2 (NEURACLE SCIENCE CO., LTD., priority 2015, dated 2022)
Ends that are not written are not given here.

Columns and labels:
[1] = biological target: T1, GALR2 (Homo sapiens, UniProt O43603); assay: SRE-luc assay in HEK293-Gqi cells expressing GALR2; assay type: cell-based; settings: SRE-luc, HEK293-Gqi cells; compared with spexin
T1 construct: expressed in transfected cells
T1 sequence (O43603 1-387): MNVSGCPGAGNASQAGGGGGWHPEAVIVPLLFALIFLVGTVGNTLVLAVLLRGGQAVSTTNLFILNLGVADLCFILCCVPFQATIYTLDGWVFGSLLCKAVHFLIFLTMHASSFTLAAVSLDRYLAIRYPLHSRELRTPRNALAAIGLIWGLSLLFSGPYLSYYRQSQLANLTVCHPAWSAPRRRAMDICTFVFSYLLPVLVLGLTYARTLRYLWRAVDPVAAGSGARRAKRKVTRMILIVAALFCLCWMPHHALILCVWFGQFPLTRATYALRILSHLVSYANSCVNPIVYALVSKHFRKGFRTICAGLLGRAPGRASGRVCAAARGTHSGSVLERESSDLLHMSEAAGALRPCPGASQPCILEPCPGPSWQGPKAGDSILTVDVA
Text: (§1) The HEK293-Gqi stable cell line is a cell line in which the C-terminus of Gq is substituted with 3 amino acids of G to convert the signals of G to Gq signaling pathways. […] GALR subtypes 1 and 3 induce inhibitory G-coupled signaling, while GALR subtype 2 triggers stimulatory Gq-coupled signaling. This difference explains the use of the HEK293-Gqi stable cell line in which the C-terminus of Gq is substituted with 3 amino acids of G to convert the signals of Gi to Gq signaling pathways.
(§2) GALR subtypes 1 and 3 induce inhibitory G-coupled signaling, while GALR subtype 2 triggers stimulatory Gq-coupled signaling. This difference explains the use of the HEK293-Gqi stable cell line in which the C-terminus of Gq is substituted with 3 amino acids of G to convert the signals of G to Gq signaling pathways. The activities of the receptors were measured using an SRE-luc assay system designed to express luciferase (luc) by serum responsive element (SRE) promoters. Light caused by a reaction between expressed luciferase and luciferin as a substrate was detected using a luminometer so that receptor subtype-specific or ligand-specific cellular activities were observed. One day after HEK293-Gqi cells were seeded in 48-well plates at a density of 2×10^4 cells/well, plasmid DNA and SRE-luc plasmid DNA, which encode GALR2 and GALR3, respectively, were mixed in a ratio of 1:1 (75 ng+75 ng)/well, and treated with Effectene reagent (2 μl/well). After 3 h, media were replaced with DMEM media supplemented with 10% FBS. After 24 h, the DMEM media were replaced with FBS-free DMEM media. After 16 h, each constructed spexin-based mutant peptide was further incubated at 37° C. for 6 h. After this stage was finished, cells were washed with PBS and lysed by the addition of 100 μl of lysis buffer (0.1% triton X-100, 0.2M Tris, pH 8.0) at room temperature for 20 min. The luciferase activity was determined using a synergy 2 Multi-mode microplate reader (BioTek, Winooski, Vt., USA) with automatic injection of a luciferin solution (0.5 M MgCl2, 0.1 M ATP, 0.05 M D-luciferin, 1 M KH2PO4, pH 7.8).

[2] = biological target: T2, GALR3 (Homo sapiens, UniProt O60755); assay: SRE-luc assay in HEK293-Gqi cells expressing GALR3; assay type: cell-based; settings: compared with spexin
T2 construct: expressed in transfected cells
T2 sequence (O60755 1-368): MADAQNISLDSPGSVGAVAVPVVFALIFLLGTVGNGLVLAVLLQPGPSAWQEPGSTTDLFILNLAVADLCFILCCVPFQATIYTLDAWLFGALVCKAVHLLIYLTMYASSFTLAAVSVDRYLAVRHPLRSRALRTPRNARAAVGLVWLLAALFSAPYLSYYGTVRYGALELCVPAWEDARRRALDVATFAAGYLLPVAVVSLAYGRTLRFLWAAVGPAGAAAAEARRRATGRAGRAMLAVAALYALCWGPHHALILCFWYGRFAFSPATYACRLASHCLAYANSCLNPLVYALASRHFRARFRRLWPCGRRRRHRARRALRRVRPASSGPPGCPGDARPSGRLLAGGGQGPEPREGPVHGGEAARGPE
Text: as §1, §2

[3] = Stability in 100% fetal bovine serum, residual potency via IP3 production in GALR2-expressing cells; settings: 37° C.
Experimental: The stability of the spexin-based mutant peptides was investigated. To this end, first, each modified mutant peptide at an initial concentration 10 μM was allowed to react in 100% fetal bovine serum (FBS) at 37° C. for 0, 3, 6, 12, 24, 48, and 72 h. Thereafter, the potencies of the mutant peptide toward GALR2 were determined via inositol 1,4,5-triphosphate (IP3) production in GALR2-expressing cells. For the IP3 assay, cells were seeded in 12-well plates at a density of 2.5×10^5 cells/well and then the next day, cells were treated with a mixture of 1 μg of GALR2-encoding plasmid DNA and Lipofectamine 2000 (Invitrogen). On day following treatment, cells were incubated in M199 media containing 1% FBS, 1% L-glutamine, 1% antibiotic, and myo-^3H inositol 1 μCi/well for 20 h to radioactively label inositol phosphate. After this stage was finished, cells were allowed to react in buffer A (140 mM NaCl, 20 mM Hepes, 4 mM KCl, 8 mM D-glucose, 1 mM MgCl2, 1 mM CaCl2), 1 mg/ml free fatty acid bovine serum albumin, and 10 mM LiCl at pH 7.2) for 30 min. After the mutant peptide was allowed to react in 100% FBS, cells were treated with the mutant peptide for 40 min at 37° C. Media was removed, and reactions were terminated by addition of 1 ml of 10 mM cold formic acid to each well. The plates were allowed to stand at 4° C. for 30 min. Then, the resulting extracts were transferred to 6-mL plastic tubes containing 500 μl AG1-8X anion exchange columns. The tubes were gently mixed with a vortexer, and the supernatants were removed from the labeled mixture. Two washes with 1 ml of triple-distilled water were performed followed by two additional washes with 60 mM ammonium formate/5 mM sodium tetraborate. The radioactively labeled mixture was eluted from the column with 1 ml of 1 M ammonium formate/0.1 M formic acid (1 mL), and 800 μl from the elution were taken from each tube and transferred into scintillation vials. Then, 2 ml of scintillation cocktail solution (Ultima Gold™, Perkin Elmer, Waltham Mass., USA) was added to each sample. The radioactivity of the mixture solution of the radioactively labeled mixture and the scintillation cocktail solution was measured using a TRI carb 2100TR liquid scintillation analyzer (Packard).

Row | Compound | potency toward GALR3 [2] | potency toward GALR2 (IP3 production) remaining after reaction in serum ([3]; 100% FBS, initial 10 μM, within 12 h) [%] | potency toward GALR2 [1] | stability in serum (100% FBS) ([3]; 0-72 h, IP3 production in GALR2-expressing cells)
1 | Fmoc: spexin modified with Fmoc at position 1, SEQ ID NO: 45 | no influence |  | no influence | 
2 | alanine | decreased potency toward GALR3 |  | maintained its potency toward GALR2 without a substantial difference | 
3 | pQ: spexin with Asn1 replaced with pyroglutamate, SEQ ID NO: 10 | no influence |  | no influence | 
4 | NC(=O)NCCC[C@H](N)C(=O)O [Cit] | no influence |  | no influence | 
5 | [dN^1]: spexin-based mutant peptide, Asn1 replaced with D-amino acid, SEQ ID NO: 9 | slightly increased the potency |  | slightly increased the potency | 
6 | [Gly′]: spexin-based mutant peptide, Asn1 replaced with glycine, SEQ ID NO: 12 (GWTPQAMLYLKGAQ; [G1]-SPX) | maintained their potencies toward both receptors without differences from those of spexin |  | maintained their potencies toward both receptors without differences from those of spexin | 
7 | CSCC[C@H](NC(=O)[C@H](C)NC(=O)[C@H](CCC(N)=O)NC(=O)[C@@H]1CCCN1C(=O)[C@@H](NC(=O)[C@H](Cc1c[nH]c2ccccc12)NC(=O)[C@@H](N)CC(N)=O)[C@@H](C)O)C(=O)N[C@@H](CC(C)C)C(=O)N[C@@H](Cc1ccc(O)cc1)C(=O)N[C@@H](CC(C)C)C(=O)N[C@@H](CCCCN)C(=O)NCC(=O)N[C@@H](C)C(=O)N[C@@H](CCC(N)=O)C(N)=O [spexin, reference compound] |  | ≤ 80 |  | 
8 | NWTPNAALYLFGPQ-NH2 (C-terminus assumed) [Qu] |  |  |  | rapidly degraded compared to the wild-type spexin
9 | [Leu^4]: spexin-based mutant peptide, leucine at position 4, SEQ ID NO: 20 (NWTLQAMLYLKGAQ; [L4]-SPX) | maintained their potencies toward both receptors without differences from those of spexin |  | maintained their potencies toward both receptors without differences from those of spexin | 

Continued, in another order:

Row | potency toward GALR3 [2] | potency toward GALR2 (IP3 production) remaining after reaction in serum ([3]; 100% FBS, initial 10 μM, within 12 h) [%] | Compound | potency toward GALR2 [1] | stability in serum (100% FBS) ([3]; 0-72 h, IP3 production in GALR2-expressing cells)
10 | decreased potencies |  | [Gly^8]: spexin-based mutant peptide, leucine at position 8 replaced with glycine, SEQ ID NO: 26 (NWTPQAMGYLKGAQ; [G8]-SPX) | decreased potencies | 
11 | decreased potency toward GALR3 |  | [Leu^11]: spexin-based mutant peptide, leucine at position 11, SEQ ID NO: 32 (NWTPQAMLYLLGAQ; [L11]-SPX) |  | 
12 | decreased potency toward GALR3 |  | [Phe^11]: spexin-based mutant peptide, phenylalanine at position 11, SEQ ID NO: 31 (NWTPQAMLYLFGAQ; [F11]-SPX) | maintained its potency toward GALR2 without a substantial difference | 
13 | decreased potency toward GALR3 |  | [Asn^5]: spexin-based single mutant peptide, asparagine at position 5, SEQ ID NO: 23 (NWTPNAMLYLKGAQ; [N5]-SPX) | maintained its potency toward GALR2 without a substantial difference | 
14 | decreased potency toward GALR3 |  | [Pro^13]: spexin-based mutant peptide, proline at position 13, SEQ ID NO: 39 (NWTPQAMLYLKGPQ; [P13]-SPX) | maintained its potency toward GALR2 without a substantial difference | 
